Patent publication US10398755

Columns and labels:
[1] = target: Pro-MMP-9 (recombinant) (Mus musculus (Mouse)) (UniProt P41245); assay: CLU-His pull-down with anti-His tag antibody beads, gelatin zymography, densitometry; reference: MMP-9 and MMP-9-ΔC
[2] = target: Pro-MMP-9 (recombinant) (Mus musculus (Mouse)) (UniProt P41245); assay: cell-based or functional assay

Sequence of mouse CLU with C-terminal (His)6 (CLU-His), recombinant secreted clusterin (Q06890 other isoform, or with tags, fused parts or gaps): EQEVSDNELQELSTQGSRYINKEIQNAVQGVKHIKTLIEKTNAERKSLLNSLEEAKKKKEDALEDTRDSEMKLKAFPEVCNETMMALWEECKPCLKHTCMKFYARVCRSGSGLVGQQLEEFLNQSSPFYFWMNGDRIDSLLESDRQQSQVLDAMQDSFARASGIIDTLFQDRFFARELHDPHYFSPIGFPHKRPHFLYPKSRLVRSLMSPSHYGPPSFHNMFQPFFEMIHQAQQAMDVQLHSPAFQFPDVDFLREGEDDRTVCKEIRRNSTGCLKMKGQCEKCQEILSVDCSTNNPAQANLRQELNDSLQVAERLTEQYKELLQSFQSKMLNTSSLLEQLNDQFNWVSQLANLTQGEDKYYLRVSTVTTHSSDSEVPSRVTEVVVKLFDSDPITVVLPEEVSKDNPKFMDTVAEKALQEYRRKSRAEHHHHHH

mouse CLU with C-terminal (His)6 (CLU-His), recombinant secreted clusterin (from UniProt Q06890 22-448)
fold stronger affinity for CLU than the other forms of MMP-9 (band densities, Image J) [1]: > 10 times
inhibition of MMP-9 activity; FRET peptide substrate, average of three independent experiments, CLU 50 µg/ml [2]: 35%
inhibition of MMP-9 activity; FRET peptide substrate, pro-MMP-9 with APMA, 3 h, CLU 50 µg/ml (0.63 µM) [2]: 28%
